Numbering of substitutions follows the chain as printed. Like-named read-outs stand apart in the source and are kept apart here.
B1: E9-FR2 (antibody, V domains shown)
VH: EVTLRESGPALVKPTQTLTLTCTVSGGSISSSSYYWGWIRQPPGKGLEWIGDIYYTGSTYYNPSLKSRVTISVDTSKNQFVLTMTNMDPVDTATYYCAREDVILRGGSDYWGQGTTVTVSS
VL: DYVLTQSPDSLAVSLGERATINCSGQRLGDKYASWYQQKPGQSPKLVIYEDSKRPSGIPDRFSGSNSGDDATLTISSLQAEDVAVYYCQAWDRDTGVFGGGTKVEIKR
notes: full-length human IgG1
B2: E9.19 (antibody, V domains shown)
VH: EVQLQESGPGLVKPSETLSLTCTVSGGSISSSSYYWGWIRQPPGKGLEWIGDIYYTGSTYYNPSLKSRVTISVDTSKNQFSLKLSSVTAADTAVYYCARFDVSLGGGSDTWGQGTLVTVSS
VL: SYELTQPPSVSVSPGQTASITCSGQRLGDKYASWYQQKPGQSPVLVIYEDSKRPSGIPERFSGSNSGDTATLTISGTQPMDEADYYCQAWDRDTGVFGYGTKVTVL
notes: also called DLL4-E9-19 hIgG1/L
B3: E9.2B (antibody, V domains shown)
VH: B2 VH with S33N, Y54N, T56N, S58N, F100E, D101A, S103A, S108A, T110D
VL: B2 VL with Q25E, R26G, A32V, K52T, R92S, D93E, Y99S
B4: E9-SE5 (antibody, V domains shown)
VH: B2 VH with F100E, S103I, G105R, T110Y
VL: EYVLTQSPDFQSVTPKEKVTITCSGQRLGDKYASWYQQKPDQSPKLVIYEDSKRPSGVPSRFSGSNSGDDATLTINSLEAEDAATYYCQAWDRDTGVFGQGTKVEIKR
notes: full-length human IgG1
B5: E9-SE3 (antibody, V domains shown)
VH: B2 VH with S15G, P42A, S81Y, T88R, A90E, F100E, S103I, G105R, T110Y
VL: SYELTQPPSVSVSPGQTASITCSGQRLGDKYASWYQQKPGQSPVLVIYEDSKRPSGIPERFSGSNSGDTATLTISGTQPMDEADYYCQAWDRDTGVFGYGTRVTVLG
notes: full-length human IgG1
B6: E9-SE4 (antibody, V domains shown)
VH: B2 VH with F100E, S103I, G105R, T110Y
VL: B5 VL with S1L, E3V, P79T, Y86L, Y99G, R102K
notes: full-length human IgG1
B7: E9-SE8 (antibody, V domains shown)
VH: B2 VH with S15G, P42A, S81Y, T88R, A90E, F100E, S103I, G105R, T110Y
VL: B4 VL
notes: full-length human IgG1
B8: E9-SE6 (antibody, V domains shown)
VH: B2 VH with S15G, P42A, S81Y, T88R, A90E, F100E, S103I, G105R, T110Y
VL: B5 VL with S1L, E3V, P79T, Y86L, Y99G, R102K
notes: full-length human IgG1
B9: E9-SE2 (antibody, V domains shown)
VH: EVQLVESGGGLVQPGGSLRLSCAVSGGSISSSSYYWGWIRQAPGKGLEWIGDIYYTGSTYYNPSLKSRVTISVDTSKNSFYLQMNSLRAEDTAVYYCAREDVILRGGSDYWGQGTLVTVSS
VL: B5 VL
notes: full-length human IgG1
B10: E9-SE7 (antibody, V domains shown)
VH: B9 VH
VL: B4 VL
notes: full-length human IgG1
B11: E9-FR1 (antibody, V domains shown)
VH: EVQLVQSGTEVKKPGESLKISCKVSGGSISSSSYYWGWIRQMPGKGLEWIGDIYYTGSTYYNPSLKSQVTISVDTSFNTFFLQWSSLKASDTAMYYCAREDVILRGGSDYWGQGTMVTVSS
VL: EYVLTQSPATLSVSPGERATLSCSGQRLGDKYASWYQQKPGQSPRLVIYEDSKRPSDIPARFSGSNSGDEATLTISSLQSEDFAVYYCQAWDRDTGVFGQGTRLEIKR
notes: full-length human IgG1

Key:
[1] = molecular target: T1, human DLL4 extracellular domain (human, UniProt Q9NR61 27-529); test: Biacore SPR;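 on koff: surface plasmon resonance on a Biacore instrument, antibodies captured on immobilized anti-human Fc, purified recombinant DLL4 extracellular domain injected as analyte, binding followed over time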
T1 construct: extracellular domain; coated on plates in the sVEGFR1 assay; also called huDLL4 ECD; Human DLL4 ECD
Method: (§1) The BIACORE® surface plasmon resonance assay (Biacore, Inc., Piscataway, N.J., US) determines the affinity of antibodies with kinetic measurements of on-rate and off-rate constants. Binding of DLL4 antibodies to a purified recombinant DLL4 extracellular domain is determined by surface plasmon resonance-based measurements with a Biacore® instrument (either a Biacore 2000, Biacore 3000, or Biacore T100, GE Healthcare, Piscataway, N.J. US) using running buffer HBS-EPB (10 mM HEPES [pH 7.4], 150 mM NaCl, 3 mM EDTA, 0.1 mg/ml BSA and 0.005% surfactant P20) at 25° C. For example, approximately 9000 RU of goat anti-human Fc specific polyclonal antibody (Thermo Fisher Scientific Inc., Rockford, Ill., US) diluted in 10 mM sodium acetate (pH 4.5) is directly immobilized across a CM5 research grade biosensor chip using a standard amine coupling kit according to manufacturer's instructions and procedures at 25 μg/ml. Unreacted moieties on the biosensor surface are blocked with ethanolamine. For kinetic analysis, rate equations derived from the 1:1 Langmuir binding model are fitted simultaneously to multiple antigen injections (using global fit analysis) with the use of Scrubber 2 (BioLogic Software). […] The equilibrium dissociation constant KD (M) of the reaction between antibodies and the target antigen is then calculated from the kinetic rate constants by the following formula: KD=Koff/Kₒₙ. Binding is recorded as a function of time and kinetic rate constants are calculated. In this assay, on-rates as fast as 10⁶ M⁻¹s⁻¹ and off-rates as slow as 10⁻⁶ s⁻¹ can be measured.

[2] = molecular target: T2, mouse DLL4 extracellular domain (mouse, UniProt Q9JI71 27-532); test: Biacore SPR;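 on koff: surface plasmon resonance on a Biacore instrument, antibodies captured on immobilized anti-human Fc, purified recombinant DLL4 extracellular domain injected as analyte, binding followed over time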
T2 construct: extracellular domain; also called muDLL4 ECD; Mouse DLL4 ECD
T2 sequence (Q9JI71 27-532): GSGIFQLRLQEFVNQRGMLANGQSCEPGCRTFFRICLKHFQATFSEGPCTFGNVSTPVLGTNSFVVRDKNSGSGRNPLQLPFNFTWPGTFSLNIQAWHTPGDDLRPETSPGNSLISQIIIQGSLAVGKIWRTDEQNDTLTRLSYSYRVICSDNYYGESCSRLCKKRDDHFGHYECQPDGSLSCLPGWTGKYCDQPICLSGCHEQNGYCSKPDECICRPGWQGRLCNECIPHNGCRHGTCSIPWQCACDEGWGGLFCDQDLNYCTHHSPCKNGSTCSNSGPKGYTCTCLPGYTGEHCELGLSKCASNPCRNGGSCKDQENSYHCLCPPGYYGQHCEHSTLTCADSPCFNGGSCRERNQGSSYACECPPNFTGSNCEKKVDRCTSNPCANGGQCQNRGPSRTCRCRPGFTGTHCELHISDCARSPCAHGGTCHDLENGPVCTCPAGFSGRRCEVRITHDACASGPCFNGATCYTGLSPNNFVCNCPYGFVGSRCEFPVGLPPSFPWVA
Method: as §1

[3] = molecular target: T3, human DLL4-his (human, UniProt Q9NR61 27-529); test: ELISA on DLL4-his
T3 construct: extracellular domain
Method: (§2) After the final wash, plates were incubated with 100 μl/well ELISA substrate (Sigma # T8665). The reaction was stopped after 8 minutes at 25° C. with 100 μl/well 1N HCl and the absorbance was read at 450 nm. Data were analyzed using Graphpad Prism software and EC50 values were reported.

[4] = molecular target: T4, mouse DLL4-his (mouse, UniProt Q9JI71 27-532); test: ELISA on DLL4-his
T4 construct: extracellular domain; not shown: his tag
T4 sequence (Q9JI71 27-532): as above

[5] = molecular target: T5, human DLL4 on the cell surface (human, UniProt Q9NR61 27-685); test: FACS on DLL4 cells
T5 construct: whole, on cells; also called HEK293-hDLL4; hDLL4-293G
Method: (§3) Stable cell lines overexpressing cell-surface DLL4 were harvested from tissue culture flasks, washed four times and resuspended in phosphate buffered saline (PBS) containing 1% bovine serum albumin and 1 mM CaCl₂ (FACS buffer), 1.5×10³ cells were incubated with antibodies at various concentrations in FACS buffer for 60 minutes on ice. Cells were washed twice and 50 μL of R-phycoerythrin-conjugated anti-rat IgG. […] Following an incubation on ice (4° C., 60 minutes), cells were washed three times and resuspended in FACS buffer. Fluorescence was measured using a Becton Dickinson FACSCalibur-HTS (Becton Dickinson, San Jose. Calif., US). Data were analyzed using Graphpad Prism software and EC₅₀ values were reported as the concentration of antibody to achieve 50% of maximal DLL4 antibodies binding to DLL4 expressing cells.

[6] = molecular target: T6, mouse DLL4 on the cell surface (mouse, UniProt Q9JI71 27-686); test: FACS on DLL4 cells
T6 construct: whole, on cells; also called HEK293-mDLL4; mDLL4-293G
T6 sequence (Q9JI71 27-686): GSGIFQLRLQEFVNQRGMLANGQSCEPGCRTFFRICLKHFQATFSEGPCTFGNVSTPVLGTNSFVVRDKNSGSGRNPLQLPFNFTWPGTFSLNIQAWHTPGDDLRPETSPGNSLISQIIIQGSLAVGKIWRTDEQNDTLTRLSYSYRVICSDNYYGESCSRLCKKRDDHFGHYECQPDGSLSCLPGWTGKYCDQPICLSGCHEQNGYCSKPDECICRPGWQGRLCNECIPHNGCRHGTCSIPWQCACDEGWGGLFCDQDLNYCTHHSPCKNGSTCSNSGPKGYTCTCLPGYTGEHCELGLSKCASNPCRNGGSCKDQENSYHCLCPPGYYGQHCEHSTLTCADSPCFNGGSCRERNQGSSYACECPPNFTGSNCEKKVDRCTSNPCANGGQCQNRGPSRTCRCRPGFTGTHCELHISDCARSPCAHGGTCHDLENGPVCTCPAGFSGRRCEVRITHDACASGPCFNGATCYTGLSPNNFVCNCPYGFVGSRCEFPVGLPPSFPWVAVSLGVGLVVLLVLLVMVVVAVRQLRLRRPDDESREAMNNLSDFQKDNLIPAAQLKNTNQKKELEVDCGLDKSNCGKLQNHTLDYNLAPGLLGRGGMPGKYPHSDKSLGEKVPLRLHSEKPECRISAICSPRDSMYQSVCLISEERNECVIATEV
Method: as §3

[7] = molecular target: T5, human DLL4 on the cell surface; test: competition FACS, competitor huNotch-1
Method: (§4) Notch blocking assay: Briefly, stable cell lines overexpressing cell-surface DLL4 were harvested from tissue culture flasks and re-suspended in phosphate buffered saline (PBS) containing 1% bovine serum albumin and 1 mM CaCl₂ (FACS buffer). HEK293-hDLL4 or HEK293-mDLL4 cells were dispensed into 96-well plate (v-bottom) at 1.5×10⁵ cells/well in FACS buffer. […] After washing the cells two times with FACS buffer, 50 μL of R-phycoerythrin-conjugated streptavidin (1:150 dilution in FACS buffer) (Jackson ImmunoResearch, West Grove, Pa., US, catalog no. 016-110-084) were added. Following an incubation on ice (4° C., 60 minutes), cells were washed three times and resuspended in FACS buffer. Fluorescence was measured using a Becton Dickinson FACSCalibur-HTS (Becton Dickinson, San Jose. Calif.).

[8] = molecular target: T6, mouse DLL4 on the cell surface; test: competition FACS, competitor huNotch-1
Method: as §4

[9] = molecular target: T1, human DLL4 extracellular domain; test: competition ELISA, competitor huNotch-1
Method: (§5) Plates were then washed 3 times with wash buffer (PBS, 0.05% Tween-20) and blocked with 200 μl/well blocking buffer (D-PBS, 1% BSA, 1 mM CaCl₂, 0.05% Tween-20) for 1 hour at 25° C. […] Assay plates were washed after blocking, and incubated with DLL4/antibody mixtures (100 μl/well, 1 hour at 25° C. with shaking). […] After a final wash, plates were developed using 100 μl/well substrate (TMB Sigma # T8665), and the reaction was stopped after an 8-minute incubation at 25° C. (for muDLL4 ELISA) and after 20 minute incubation at 25° C. (for huDLL4 ELISA) using 100 μl/well 1N HCl, and the absorbance was read at 450 nm.

[10] = molecular target: T2, mouse DLL4 extracellular domain; test: competition ELISA, competitor huNotch-1
Method: as §5

[11] = molecular target: T1, human DLL4 extracellular domain; test: Biacore SPR; remark: listed apart in the source;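 on koff: surface plasmon resonance on a Biacore instrument, antibodies captured on immobilized anti-human Fc, purified recombinant DLL4 extracellular domain injected as analyte, binding followed over time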
Method: (§6) Binding of DLL4 antibodies to a purified recombinant DLL4 extracellular domain is determined by surface plasmon resonance-based measurements with a Biacore® instrument (either a Biacore 2000, Biacore 3000, or Biacore T100, GE Healthcare, Piscataway, N.J. US) using running buffer HBS-EPB (10 mM HEPES [pH 7.4], 150 mM NaCl, 3 mM EDTA, 0.1 mg/ml BSA and 0.005% surfactant P20) at 25° C. For example, approximately 9000 RU of goat anti-human Fc specific polyclonal antibody (Thermo Fisher Scientific Inc., Rockford, Ill., US) diluted in 10 mM sodium acetate (pH 4.5) is directly immobilized across a CM5 research grade biosensor chip using a standard amine coupling kit according to manufacturer's instructions and procedures at 25 μg/ml. Unreacted moieties on the biosensor surface are blocked with ethanolamine. For kinetic analysis, rate equations derived from the 1:1 Langmuir binding model are fitted simultaneously to multiple antigen injections (using global fit analysis) with the use of Scrubber 2 (BioLogic Software). […] The equilibrium dissociation constant KD (M) of the reaction between antibodies and the target antigen is then calculated from the kinetic rate constants by the following formula: KD=Koff/Kₒₙ. Binding is recorded as a function of time and kinetic rate constants are calculated. In this assay, on-rates as fast as 10⁶ M⁻¹s⁻¹ and off-rates as slow as 10⁻⁶ s⁻¹ can be measured.

[12] = molecular target: T2, mouse DLL4 extracellular domain; test: Biacore SPR; remark: listed apart in the source;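 on koff: surface plasmon resonance on a Biacore instrument, antibodies captured on immobilized anti-human Fc, purified recombinant DLL4 extracellular domain injected as analyte, binding followed over time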
Method: as §6

[13] = molecular target: T5, human DLL4 on the cell surface; test: FACS on DLL4 cells; remark: listed apart in the source
[14] = molecular target: T6, mouse DLL4 on the cell surface; test: FACS on DLL4 cells; remark: listed apart in the source
[15] = molecular target: T5, human DLL4 on the cell surface; test: cell-based or functional assay
[16] = molecular target: T1, human DLL4 extracellular domain; test: capture ELISA
Method: (§7) ELISA plates were washed 3 times with wash buffer (PBS, 0.05% Tween-20) and then blocked with 200 ml/well blocking buffer (D-PBS, 1% BSA, 1 mM CaCl₂, 0.05% Tween-20) for 1 hour at 25° C. Plates were washed 3 times and incubated with 100 μl/well DLL4 antibodies (0.0001-100 nM, 10-fold serial dilution in blocking buffer) for 1 hour at 25° C., and then washed again 3 times. […] The reaction was stopped after 2 minutes at 25° C. with 100 μl/well 2 N H2SO₄ and the absorbance was read at 450 nm. Data were analyzed using Graphpad Prism software and EC₅₀ values were reported.

[17] = molecular target: T2, mouse DLL4 extracellular domain; test: capture ELISA
Method: as §7

[18] = molecular target: T1, human DLL4 extracellular domain; test: competition ELISA, competitor huNotch-1; remark: listed apart in the source
Method: as §5

[19] = molecular target: T2, mouse DLL4 extracellular domain; test: competition ELISA, competitor huNotch-1; remark: listed apart in the source
Method: as §5

[20] = molecular target: T5, human DLL4 on the cell surface; test: competition FACS, competitor huNotch-1; remark: listed apart in the source
Method: as §4

[21] = molecular target: T6, mouse DLL4 on the cell surface; test: competition FACS, competitor huNotch-1; remark: listed apart in the source
Method: as §4

[22] = molecular target: T1, human DLL4 extracellular domain; test: competition ELISA, competitor huNotch-1; remark: listed apart in the source
Method: as §5

[23] = molecular target: T2, mouse DLL4 extracellular domain; test: competition ELISA, competitor huNotch-1; remark: listed apart in the source
Method: as §5

[24] = molecular target: T1, human DLL4 extracellular domain; test: Biacore SPR; remark: listed apart in the source
Method: as §1

[25] = molecular target: T2, mouse DLL4 extracellular domain; test: Biacore SPR; remark: listed apart in the source
Method: as §1

[26] = molecular target: T3, human DLL4-his; test: ELISA on DLL4-his; remark: listed apart in the source
Method: as §2

[27] = molecular target: T4, mouse DLL4-his; test: ELISA on DLL4-his; remark: listed apart in the source
Method: as §2

[28] = molecular target: T5, human DLL4 on the cell surface; test: competition FACS, competitor huNotch-1; remark: listed apart in the source
Method: as §4

[29] = molecular target: T6, mouse DLL4 on the cell surface; test: competition FACS, competitor huNotch-1; remark: listed apart in the source
Method: as §4

[30] = molecular target: T5, human DLL4 on the cell surface; test: FACS on DLL4 cells; remark: listed apart in the source
Method: as §3

[31] = molecular target: T6, mouse DLL4 on the cell surface; test: FACS on DLL4 cells; remark: listed apart in the source
Method: as §3

Row | Binder | IC50 [22] [nM] | IC50 [23] [nM] | Kd [24] [nM] | Kd [25] [nM] | EC50 [26] [nM] | EC50 [27] [nM] | IC50 [28] [nM] | IC50 [29] [nM] | Kd [30] [nM] | Kd [31] [nM] | also measured
1 | B1 | – | – | – | – | – | – | – | – | – | – | Kd [1]: 0.31 nM; Kd [2]: 0.69 nM; EC50 [3]: 0.105 nM; EC50 [4]: 0.125 nM; Kd [5]: 6.2 nM; Kd [6]: 3.57 nM; IC50 [7]: 3.03 nM; IC50 [8]: 1.07 nM; IC50 [9]: 1.52 nM; IC50 [10]: 4.35 nM
2 | B2 | – | – | – | – | – | – | – | – | – | – | Kd [11]: 0.69 nM; koff [11]: 5.17e-05 s⁻¹; kon [11]: 74900 M⁻¹ s⁻¹; Kd [12]: 3.07 nM; koff [12]: 0.000206 s⁻¹; kon [12]: 67000 M⁻¹ s⁻¹; EC50 [13]: 2.79 nM; EC50 [14]: 0.54 nM; Inhibition of Notch activation via huDLL4 cells, coculture (IC50, nM) [15]: 4.4 nM; EC50 [16]: 0.17 nM; EC50 [17]: 0.17 nM; IC50 [18]: 1.8 nM; IC50 [19]: 1.3 nM; IC50 [20]: 4.9 nM; IC50 [21]: 0.44 nM
3 | B3 | – | – | – | – | – | – | – | – | – | – | Kd [11]: 0.02 nM; koff [11]: 7.9e-06 s⁻¹; kon [11]: 356000 M⁻¹ s⁻¹; EC50 [13]: 1.78 nM; EC50 [14]: 0.35 nM; Inhibition of Notch activation via huDLL4 cells, coculture (IC50, nM) [15]: 2.1 nM; EC50 [16]: 0.16 nM; EC50 [17]: 0.16 nM; IC50 [18]: 2.3 nM; IC50 [19]: 2.8 nM; IC50 [20]: 2.63 nM; IC50 [21]: 0.34 nM
4 | B4 | 2.6 | 2.4 | 1.57 | 12.8 | 0.16 | 0.19 | 6.38 | 1.76 | 7.81 | 2.9 | –
5 | B5 | 2.5 | 2.1 | 2.26 | 12.1 | 0.18 | 0.2 | 6.75 | 1.25 | 2.29 | 0.74 | –
6 | B6 | 2.7 | 2.9 | 2.38 | 10.5 | 0.17 | 0.2 | 5.82 | 1.71 | – | 1.15 | –
7 | B7 | 2.5 | 2.6 | 2 | 13 | 0.18 | 0.19 | 9.25 | 2.3 | 2.67 | 2.32 | –
8 | B8 | 2.5 | 2.9 | 0.64 | 10 | 0.17 | 0.19 | 8.16 | 1.53 | 4.25 | 1.18 | –
9 | B9 | 2.6 | 2.2 | 2.43 | 15.1 | 0.18 | 0.2 | 5.61 | 1.23 | 5.2 | 0.87 | –
10 | B10 | 2.4 | 2.4 | 1.69 | 16.2 | 0.17 | 0.17 | 7.81 | 1.94 | 2.28 | 2.24 | –
11 | B11 | – | – | – | – | – | – | – | – | – | – | Kd [1]: 0.72 nM; Kd [2]: 1.6 nM; EC50 [3]: 0.11 nM; EC50 [4]: 0.13 nM; Kd [5]: 4 nM; Kd [6]: 2.51 nM; IC50 [7]: 1.57 nM; IC50 [8]: 0.98 nM; IC50 [9]: 1.54 nM; IC50 [10]: 3.35 nM

Source: patent publication US20200255508A1 (AbbVie / Abbott, published 2020)
